# Laboratory results reported in paper PMC3597719.
# Target: NS1 protein expressed in yeast cells (UniProt P14340)
substance,measurement,value
NS1 protein expressed in yeast cells (from UniProt P14340 776-1127) (natural protein),stoichiometry N,2
